The test addresses T1, WT RBD (Wuhan) (SARS-CoV-2, Wuhan (RBD identical in …, UniProt P0DTC2)).
T1 construct: also called Wuhan RBD; native RBD
Description: crystal structure. As to conditions: both partners purified.

B1: EY6A Fab (Fab, V domains shown)
VH: EVQLVESGGGVVQPGRSLRLSCAASAFTFSSYDMHWVRQAPGKGLEWVAVISYDGSNKYYADSVKGRFTISRDNSKNTLYLQMNSLRAEDTAVYYCAKDGGKLWVYYFDYWGQGTLVTVSS
VL: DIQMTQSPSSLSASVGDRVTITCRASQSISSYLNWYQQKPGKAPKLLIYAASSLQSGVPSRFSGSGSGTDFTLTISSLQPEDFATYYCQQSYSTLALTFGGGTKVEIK
With B1, the binding result was “binds”.

These data come from article doi:10.1101/2021.03.12.435194, “Antibody evasion by the Brazilian P.1 strain of SARS-CoV-2” (bioRxiv, 2021).
